Assay: yeast display, Sf9 membrane polyspecificity reagent, FACS + sequencing; frameworks hold sequencing errors
How it was run: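 After 36–48 hours of galactose induction, yeast (Saccharomyces cerevisiae BJ5465) displaying a synthetic nanobody library were stained at 4 °C for 1 hour with 10% biotinylated, detergent-solubilized Sf9 membrane reagent. Streptavidin microbeads enriched the stained cells before FACS sorting into low and high (top ~1%) gates on anti-HA and streptavidin fluorescence. Each clone's polyreactivity label reflects its gate of origin.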

Row | Sequence | polyreactivity (PSR sort gate)
1 | QVQLVESGGGLVQAGGSLRLSCAASGRTFYSYVMGWYRQAPGKERELVAAISGRGVSTYYADSVKGRFTISRDNAKNTVYLQMNSLKPEDTAVYYCAAETVHGSADFDYWGQGTQVTVSS | low polyreactivity
2 | QVQLVESGGGLVQAGGSLRLSCAASGRTFYTNAMGRYRQAPGKERELVAAISRGGGRTYYADSVKGRFTISRDNAKNTVYLQMNSLKPEDTAVYYCAASPYQGQGREYYYWGQGTQVTVSS | high polyreactivity
3 | QVQLVESGGGLVQAGGSLRLSCAASGRTFYTNAMGWYRQAPGKERELVAAISRGGGRTYYADSVKGRFTISRDNAKNTVYLQMNSLKPEDTAVYYCAASPYQGQGREYYYWGQGTQVTVSS | high polyreactivity
4 | QVQLVESGGGLVQAGGSLRLSCAASGRTFYTNAMGWYRQAPGKERELVASISGSGGSTYYADSVKGRFTISRDNAKNTVYLQMNSLKPEDTAVYYCAADPAPTVEFGKYDYWGQGTQVTVSS | low polyreactivity
5 | QVQLVESGGGLVQAGGSLRLSCAASGRTFYTYAMGLYRQAPGNERELVATITSGGSTYYADSVKGRFTISRDNAKNTVYLQMNSLKPEDTAVYYCARRRRESRQDGDYWVQGTQVTVSS | high polyreactivity
6 | QVQLVESGGGLVQAGGSLRLSCAASGRTFYTYAMGWYRQAPGKERELVAAISSSGSTYYADSVKGRFTISRDNAKNTVYLQMNSLKPEDTAVYYCNARTSRYRRGGDSWGQGTQVTVSS | high polyreactivity
7 | QVQLVESGGGLVQAGGSLRLSCAASGRTFYTYAMGWYRQAPGKESELVATIRWSGGSTRYADSVKGRFTISRDYAKNTVYLQMNSLKPEDTAVYYCAADNYYRRKYKYDYWGQGNQVTVSS | high polyreactivity
8 | QVQLVESGGGLVQAGGSLRLSCAASGRTFYTYTMGWYRQAPGKERELVAAISKSGTSTYYADSVKGRFTISRDNAKNTVYLQMNSLKPEDTAVYYCAARAYYARFLMGYWGQGTQVTVSS | high polyreactivity
9 | QVQLVESGGGLVQAGGSLRLSCAASGRTFYTYVMGWYRQAPGKEREFVAAITYSGGSTYYADSVKGRFTISRDNAKNTVYLQMNSLKPEDTAVYYCNAEWTYSEWYGQYLEFDYWGQGTQVTVSS | high polyreactivity
10 | QVQLVESGGGLVQAGGSLRLSCAASGRTFYVNAMGWYRQAPGKEMELVAAITNGGRTNYADSVKGRFTISRDNAKNTVYLQMNSLKPEDTAVYYCNKVSLRTQSAQFHYWGQGTQVTVSS | high polyreactivity
11 | QVQLVESGGGLVQAGGSLRLSCAASGRTFYVYAMGWYRQAPGKERELVAAISADGGRTYYADSVKGRFTISRDNAKNTVYLQMNSLKPEDTAVYYCAAWRHTLGDYWGQGTQVNVSS | high polyreactivity
12 | QVQLVESGGGLVQAGGSLRLSCAASGRTFYVYAMGWYRQAPGKERELVAAISWSGGSTYYADSVKGRFTISRDNAKNTVYLQMNSLKPEDTAVYYCAAQTYQRHVVAYDYWGQGTQVTVSS | low polyreactivity
13 | QVQLVESGGGLVQAGGSLRLSCAASGRTFYVYAMGWYRQAPGKERELVAAITSGGRTYYADSVKGRFTISRDNAKNTVYLQMNSLKPEDTAVYYCAVGNGLSRYVYGDYDYWGQGTQVTVSS | high polyreactivity
14 | QVQLVESGGGLVQAGGSLRLSCAASGRTFYVYTMGWYRQAPGKERELVAAITSGGSTNYADSVKGRFTISRDNAKNTVYLQMNSLKPEDTAVYYCAARVSTVFKRYYYCGQGTQVTVSS | high polyreactivity
15 | QVQLVESGGGLVQAGGSLRLSCAASGRTFYWNAMGWYRQAPGKEREFVAAITNTAGSTYYADSVKGRFTISRDNAKNTVYLQMNSLNPEDTAVYYCAKSGNGGYRTYLRDYWGQGTQVTVSS | low polyreactivity
16 | QVQLVESGGGLVQAGGSLRLSCAASGRTFYWNTMGWYRQAPGKERELVAAINYSGGSTYYADSVKGRFTISRDNAKNTVYLQMNSLKPEDTAVYYCAAYFHGYKSLHRARSEYNYWGQGTQVNVSS | high polyreactivity
17 | QVQLVESGGGLVQAGGSLRLSCAASGRTFYWYVMGWYRQAPGKERELVATITSGGSSNYADSVKGRFTISRDNAKNTVYLQRNSLKPEDTAVYYCNRDRLVRYEAEYDYWGQGTQVTVSS | low polyreactivity
18 | QVQLVESGGGLVQAGGSLRLSCAASGRTFYYNAMGWYRQAPGKERELVAAISSRGGNTYYADSVKGRFTISRDNAKNTVYYQMNSLKPEDTAVYYCARRYPYPAYEYGYWGQGTQVTVSS | high polyreactivity
19 | QVQLVESGGGLVQAGGSLRLSCAASGRTFYYNAMGWYRQAPGKERELVAAISWSGGSTYYADSVKGRFTISRDNAKNTVYLQMNSLKPEDTAVYYCAADYEYSRAYGYDYWGQGTQVTVSL | low polyreactivity
20 | QVQLVESGGGLVQAGGSLRLSCAASGRTFYYNPMGWYRQAPGKERELVAAITQSGGRTYYADSVKGRFTISRDNAKNTVYVQMNSVKPEDSAVYYFYAVRPVRGYIYQGYNYWGQGTQVTVSS | high polyreactivity

Row | Sequence | polyreactivity (PSR sort gate)
21 | QVQLVESGGGLVQAGGSLRLSCAASGRTFYYNTKGWYRQAPGKERELVASISGSGGRTYFADSVKGRFTISRDTAKNTVYLQMNSLKPEDTAVYYCASSRARRSRYILDYWGQGTQVTVSS | high polyreactivity
22 | QVQLVESGGGLVQAGGSLRLSCAASGRTFYYNTMGWYRQAPGKERELVAALSSRGGTTSYADSVKGRFTISRDNAKNSVYLQMNSLKPEDTAVYYCNAETYRRGSYDYWGQGTQVTVSS | high polyreactivity
23 | QVQLVESGGGLVQAGGSLRLSCAASGRTFYYNTMGWYRQAPGKERELVATISRIGGSTYYADSVKGRFTISRDNAKNTVYLQMNSLKPEDTAVYYCAKGRSLNGRPPVVYWQLFYYWGQGTQVTVSS | high polyreactivity
24 | QVQLVESGGGLVQAGGSLRLSCAASGRTFYYNTMGWYRQAPGKERELVATITSSGGRTYYADSVKGRFTISRDYAKNTVYLQMNSLKPEDTAVYYCNAALSRAFKHSTGYDYWGQGTQVTVSS | low polyreactivity
25 | QVQLVESGGGLVQAGGSLRLSCAASGRTFYYYALGWDRQAPAKERELVAAIRWRGGRTYADSVKGRFTISRDNAKNTVYVQMNSLKPEDTAVYYCAVESFYRHASLYDYWGQGTQVTVSS | high polyreactivity
26 | QVQLVESGGGLVQAGGSLRLSCAASGRTFYYYAMGWYRQAPGKERELVAAISWSGGRTYYADSVKGRFTISRDNAKNTFYLQMNSMNPEDTAVYYCAADKYYSEFDYWGQGTQVTVSS | low polyreactivity
27 | QVQLVESGGGLVQAGGSLRLSCAASGRTFYYYAMGWYRQAPGKERELVAGITATGSSTYYADSVKGRFTISRDNAKNTVYLQMNSLKPEDTAVYYCAADRYTTYSGQWSYPYDYWGQGTQVTVSS | low polyreactivity
28 | QVQLVESGGGLVQAGGSLRLSCAASGRTFYYYAMGWYRQAPGKERELVASITFSGGRTYYADSVKGRFTISRDNAKNTVYLQMNSLKPEDTAVYYFARPYYGRYYPNYGVTGVDYWGQGTQVTVSS | high polyreactivity
29 | QVQLVESGGGLVQAGGSLRLSCAASGRTFYYYAMGWYRQAPGKERELVAVIRSSGDSTYYADSVKGRFTISRDNAKNTVYLQMNSLKPEDTAVYYCNADDWAYGMDYWGQGTQVTVSS | low polyreactivity
30 | QVQLVESGGGLVQAGGSLRLSCAASGRTFYYYTMGWSRQAPGKERELVAAITSVGSTSYADSVKGRFTISRANAKNTVYLQMNSPKPEATAVYYCAADYQYVWFYYWGQGTQVTVSS | high polyreactivity
31 | QVQLVESGGGLVQAGGSLRLSCAASGRTFYYYVMGWYRQAPGKERELVAAITKSTGSTYYADSVKGRFTISRDNAKNTVYLQMNSLKPEDTAVYYCAAAYWITTPYDYWGQGTQVTVSS | low polyreactivity
32 | QVQLVESGGGLVQAGGSLRLSCAASGRTGSYAMGWYRQAPGQERELVAAISRRGANTYYADSVKGRFTISRDNAKNTVYLQMNSLKPEVTAVYYCAVPHLYSRVEYDYWGQGSQVTVSS | high polyreactivity
33 | QVQLVESGGGLVQAGGSLRLSCAASGRTIDLNAMGWYRQAPGKERELVAAITSSGSTNYADSVKGRFTISRDNAKNTVYLQMNSLKPDDTAVYYCNKDPIYSAEYWVGSVGFDYWGQGTQVTVSS | low polyreactivity
34 | QVQLVESGGGLVQAGGSLRLSCAASGRTIDSNAMGWYRQAPGKERELVAAISSDGGSTYYADSVKGRFTISRDNAKNTVYLQMNSLKPEDTAVYYCNAYYGRFPYYADDYWGQGTQVTVSS | low polyreactivity
35 | QVQLVESGGGLVQAGGSLRLSCAASGRTIDYNGRGSYRQAPGKERELVAVISSSGGSPFYADSVKGRFTISRDNAKNTVYLQMNSLKPEDTAVYYCAADFIVAYTLHGSYDYWGQGTQVTVSS | low polyreactivity
36 | QVQLVESGGGLVQAGGSLRLSCAASGRTIFRYAMGWYTQAPGKERDLVAAITWSGGTTYYADSVKGRFTISRDNAKNTVYLQMNSLKPEDTAVYYCNARGLWYRRVVTYGYWGQGTQVTVSS | high polyreactivity
37 | QVQLVESGGGLVQAGGSLRLSCAASGRTIGLYDMGWYRQAHGKERELVAGITRRGGRTYYADSVKGRFTISRDNAKNSVYLQMNSLKPEDTAVYYCAAGTIYLRHAQSPFDYWGQGTQGTVSS | high polyreactivity
38 | QVQLVESGGGLVQAGGSLRLSCAASGRTIIFNAMGWYRPAPGKERELVAAISSGGGTNYADSVKGRFTISRDNAKNTVYLQMNSLKPEDTAVYYCAADPRDHYSYVYDGYKYDYWGQGTQVTVSS | low polyreactivity
39 | QVQLVESGGGLVQAGGSLRLSCAASGRTIITYAMGWYRQAPGKERELVAAINSTDGTSYADSVKGRFTISRDNAKNTVYLQMNSLKPEDTAVYYCARGTEVKSGISYRFYYWGQGTQVTVSS | low polyreactivity
40 | QVQLVESGGGLVQAGGSLRLSCAASGRTIIYYGMGWYRQAPGKERELVAAISLRGSSTRYADSVKGRFTISRDNAKNTVYLQMNSLKPEDTAVYYCAARPRLSRYDYWGQGTQVTVSS | high polyreactivity
